Article PMC6116203

Molecular target: R1 pyocin fiber PLES_06171 fragment (residues 323–701) (Pseudomonas aeruginosa LESB58)
Assay: crystal structure

Substance “R1 pyocin fiber PLES_06171 fragment (residues 323–701) (domain or fragment)” has a stoichiometry N of 3.
